For one series, the system named is MCF7. In words: percentage of EdU-negative (G0-arrested) nuclei per well, 72 h; higher = more G0 arrest. The note with it: reference: sequence is the full UniProt precursor, the tested protein was the secreted form or ectodomain.
The next series has as its system hTERT-HMEC. The description is as above. The note with it: reference: sequence is the full UniProt precursor, the tested protein was the secreted form or ectodomain.
Where [1] appears, read: protein concentration 0.0305714 µM.
The mark [2] stands for this setting: protein concentration 0.305714 µM.
The mark [3] stands for this setting: protein concentration 0.0225 µM.
Where [4] appears, read: protein concentration 0.03125 µM.
The mark [5] stands for this setting: protein concentration 0.3125 µM.
The mark [6] stands for this setting: protein concentration 0.0283425 µM.
Where [7] appears, read: protein concentration 0.283425 µM.

The results in this text go back to the supplement of paper PMC11316812.

± gives the standard deviation of the averaged measurements.
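Also: secreted proteins added to cultured cells, EdU pulse at the end, nuclei found by Hoechst imaging, EdU status from nuclear versus surrounding ring intensity ratio, PBS as neutral control.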

On to “MSDLGAVISLLLWGRQLFALYSGNDVTDISDDRFPKPPEIANGYVEHLFRYQCKNYYRLRTEGDGVYTLNDKKQWINKAVGDKLPECEAVCGKPKNPANPVQRILGGHLDAKGSFPWQAKMVSHHNLTTGATLINEQWLLTTAKNLFLNHSENATAKDIAPTLTLYVGKKQLVEIEKVVLHPNYHQVDIGLIKLKQKVLVNERVMPICLPSKNYAEVGRVGYVSGWGQSDNFKLTDHLKYVMLPVADQYDCITHYEGSTCPKWKAPKSPVGVQPILNEHTFCVGMSKYQEDTCYGDAGSAFAVHDLEEDTWYAAGILSFDKSCAVAEYGVYVKVTSIQHWVQKTIAEN”, for which the “percentage of EdU-negative” value with MCF7 (protein concentration 0.029 µM) worked out at 26.82 ± 0.23%; in the series on MCF7 (protein concentration 0.29 µM) it was 26.1 ± 1.1%; in the series on hTERT-HMEC (protein concentration 0.029 µM), 4.84 ± 0.049%; with hTERT-HMEC (protein concentration 0.29 µM) it was 4.84 ± 0.17%.

For the sequence “MSDSKEPRLQQLGLLEEEQLRGLGFRQTRGYKSLAGCLGHGPLVLQLLSFTLLAGLLVQVSKVPSSISQEQSRQDAIYQNLTQLKAAVGELSEKSKLQEIYQELTQLKAAVGELPEKSKLQEIYQELTRLKAAVGELPEKSKLQEIYQELTWLKAAVGELPEKSKMQEIYQELTRLKAAVGELPEKSKQQEIYQELTRLKAAVGELPEKSKQQEIYQELTRLKAAVGELPEKSKQQEIYQELTQLKAAVERLCHPCPWEWTFFQGNCYFMSNSQRNWHDSITACKEVGAQLVVIKSAEEQNFLQLQSSRSNRFTWMGLSDLNQEGTWQWVDGSPLLPSFKQYWNRGEPNNVGEEDCAEFSGNGWNDDKCNLAKFWICKKSAASCSRDEEQFLSPAPATPNPPPA [Q9NNX6]”, the “percentage of EdU-negative” value in the series on MCF7 (setting [1]) was found to be 26.2 ± 1%; in the series with MCF7 (setting [2]), 26.5 ± 0.49%; in the series on hTERT-HMEC (setting [1]), 4.977 ± 0.027%; in the series with hTERT-HMEC (setting [2]), 17 ± 4.1%.

For the sequence “MSDSKEPRVQQLGLLEEDPTTSGIRLFPRDFQFQQIHGHKSSTGCLGHGALVLQLLSFMLLAGVLVAILVQVSKVPSSLSQEQSEQDAIYQNLTQLKAAVGELSEKSKLQEIYQELTQLKAAVGELPEKSKLQEIYQELTRLKAAVGELPEKSKLQEIYQELTRLKAAVGELPEKSKLQEIYQELTRLKAAVGELPEKSKLQEIYQELTELKAAVGELPEKSKLQEIYQELTQLKAAVGELPDQSKQQQIYQELTDLKTAFERLCRHCPKDWTFFQGNCYFMSNSQRNWHDSVTACQEVRAQLVVIKTAEEQNFLQLQTSRSNRFSWMGLSDLNQEGTWQWVDGSPLSPSFQRYWNSGEPNNSGNEDCAEFSGSGWNDNRCDVDNYWICKKPAACFRDE [Q9H2X3]”, the “percentage of EdU-negative” value in the series with MCF7 (setting [3]) stood at 27 ± 3.5%; in the series on MCF7 (protein concentration 0.225 µM), 23.8 ± 2.6%; with hTERT-HMEC (setting [3]), 5.68 ± 0.32%; with hTERT-HMEC (protein concentration 0.225 µM) it was 6.17 ± 0.82%.

As to “MSEEVTYADLQFQNSSEMEKIPEIGKFGEKAPPAPSHVWRPAALFLTLLCLLLLIGLGVLASMFHVTLKIEMKKMNKLQNISEELQRNISLQLMSNMNISNKIRNLSTTLQTIATKLCRELYSKEQEHKCKPCPRRWIWHKDSCYFLSDDVQTWQESKMACAAQNASLLKINNKNALEFIKSQSRSYDYWLGLSPEEDSTRGMRVDNIINSSAWVIRNAPDLNNMYCGYINRLYVQYYHCTYKKRMICEKMANPVQLGSTYFREA [Q5QGZ9]”, the “percentage of EdU-negative” value in the series on MCF7 (setting [3]) came to 25.2 ± 1.6%; in the series on MCF7 (protein concentration 0.225 µM), 28.95 ± 0.13%; with hTERT-HMEC (setting [3]) it was 4.07 ± 0.067%; with hTERT-HMEC (protein concentration 0.225 µM) it was 4.99 ± 0.84%.

Turning to “MSERKEGRGKGKGKKKERGSGKKPESAAGSQSPALPPRLKEMKSQESAAGSKLVLRCETSSEYSSLRFKWFKNGNELNRKNKPQNIKIQKKPGKSELRINKASLADSGEYMCKVISKLGNDSASANITIVESNEIITGMPASTEGAYVSSESPIRISVSTEGANTSSSTSTSTTGTSHLVKCAEKEKTFCVNGGECFMVKDLSNPSRYLCKCQPGFTGARCTENVPMKVQNQEKAEELYQKRVLTITGICIALLVVGIMCVVAYCKTKKQRKKLHDRLRQSLRSERNNMMNIANGPHHPNPPPENVQLVNQYVSKNVISSEHIVEREAETSFSTSHYTSTAHHSTTVTQTPSHSWSNGHTESILSESHSVIVMSSVENSRHSSPTGGPRGRLNGTGGPRECNSFLRHARETPDSYRDSPHSERYVSAMTTPARMSPVDFHTPSSPKSPPSEMSPPVSSMTVSMPSMAVSPFMEEERPLLLVTPPRLREKKFDHHPQQFSSFHHNPAHDSNSLPASPLRIVEDEEYETTQEYEPAQEPVKKLANSRRAKRTKPNGHIANRLEVDSNTSSQSSNSESETEDERVGEDTPFLGIQNPLAASLEATPAFRLADSRTNPAGRFSTQEEIQARLSSVIANQDPIAV”, the “percentage of EdU-negative” value in the series on MCF7 (setting [4]) stood at 23.8 ± 3.8%; in the series on MCF7 (setting [5]) it was 24.8 ± 0.83%; with hTERT-HMEC (setting [4]), 4.23 ± 0.16%; with hTERT-HMEC (setting [5]), 4.694 ± 0.041%.

For the sequence “MSEVPVARVWLVLLLLTVQVGVTAGAPWQCAPCSAEKLALCPPVSASCSEVTRSAGCGCCPMCALPLGAACGVATARCARGLSCRALPGEQQPLHALTRGQGACVQESDASAPHAAEAGSPESPESTEITEEELLDNFHLMAPSEEDHSILWDAISTYDGSKALHVTNIKKWKEPCRIELYRVVESLAKAQETSGEEISKFYLPNCNKNGFYHSRQCETSMDGEAGLCWCVYPWNGKRIPGSPEIRGDPNCQIYFNVQN”, the “percentage of EdU-negative” value with MCF7 (setting [6]) worked out at 24.4 ± 0.48%; in the series on MCF7 (setting [7]), 29.6 ± 4%; in the series on hTERT-HMEC (setting [6]), 5.41 ± 0.56%; in the series with hTERT-HMEC (setting [7]), 9.21 ± 1.1%.
